These results are taken from paper PMC5286519, “Two strategies to engineer flexible loops for improved enzyme thermostability” (Scientific Reports, 2017).

Positions count from the first letter of the chain named. In names and notes the source's numbering stands.

B1: Escherichia coli transketolase (TK); wild-type E. coli TK (Escherichia coli K-12) (protein)
chain: MSSRKELANAIRALSMDAVQKAKSGHPGAPMGMADIAEVLWRDFLKHNPQNPSWADRDRFVLSNGHGSMLIYSLLHLTGYDLPMEELKNFRQLHSKTPGHPEVGYTAGVETTTGPLGQGIANAVGMAIAEKTLAAQFNRPGHDIVDHYTYAFMGDGCMMEGISHEVCSLAGTLKLGKLIAFYDDNGISIDGHVEGWFTDDTAMRFEAYGWHVIRDIDGHDAASIKRAVEEARAVTDKPSLLMCKTIIGFGSPNKAGTHDSHGAPLGDAEIALTREQLGWKYAPFEIPSEIYAQWDAKEAGQAKESAWNEKFAAYAKAYPQEAAEFTRRMKGEMPSDFDAKAKEFIAKLQANPAKIASRKASQNAIEAFGPLLPEFLGGSADLAPSNLTLWSGSKAINEDAAGNYIHYGVREFGMTAIANGISLHGGFLPYTSTFLMFVEYARNAVRMAALMKQRQVMVYTHDSIGLGEDGPTHQPVEQVASLRVTPNMSTWRPCDQVESAVAWKYGVERQDGPTALILSRQNLAQQERTEEQLANIARGGYVLKDCAGQPELIFIATGSEVELAVAAYEKLTAEGVKARVVSMPSTDAFDKQDAAYRESVLPKAVTARVAVEAGIADYWYKYVGLNGAIVGMTTFGESAPAELLFEEFGFTVDNVVAKAKELL
notes: full-length tktA product, N-terminal His6-tag (kept, no cleavage told), expressed in E. coli XL10-Gold from plasmid pQR791, Ni-NTA purified, dialysed into ThDP and MgCl2 (holo form), homodimer
B2: Escherichia coli transketolase (TK); wild-type E. coli TK (Escherichia coli K-12; I189H) (protein)
chain: B1 chain with I189H
notes: as for B1
B3: Escherichia coli transketolase (TK); wild-type E. coli TK (Escherichia coli K-12; D143K) (protein)
chain: B1 chain with D143K
notes: as for B1
B4: Escherichia coli transketolase (TK); wild-type E. coli TK (Escherichia coli K-12; H192P) (protein)
chain: B1 chain with H192P
notes: as for B1
B5: Escherichia coli transketolase (TK); wild-type E. coli TK (Escherichia coli K-12; A282P/H192P) (protein)
chain: B1 chain with H192P, A282P
notes: as for B1
B6: Escherichia coli transketolase (TK); wild-type E. coli TK (Escherichia coli K-12; A282P) (protein)
chain: B1 chain with A282P
notes: as for B1

Substrate in this series: O=CCO
In words: HPLC of erythrulose formed, Michaelis-Menten fit. The format is biochemical, Escherichia coli. Particulars: 50 mM Li-HPA (saturating co-substrate), 4-80 mM GA, 2.4 mM ThDP, 9 mM MgCl2, 50 mM Tris-HCl pH 7.0, 22 °C. The text has this:
HPLC of erythrulose formed, Michaelis-Menten fit on Escherichia coli transketolase (TK); wild-type E. coli TK
B1: the Km is reported as 20.5 (1.3) mM, the kcat turned out to be 62.3 s⁻¹ and the kcat/Km was 3040 M⁻¹ s⁻¹.

As for B2, the Km is given as 18.0 (0.8) mM.

On to B3, for which the Km was 16.1 (1.2) mM, the catalytic constant (kcat) came out at 48.1 s⁻¹ and the kcat/Km was found to be 2990 M⁻¹ s⁻¹.

With B4, the Km was 18.0 (1.2) mM, the turnover number (kcat) was 65.5 s⁻¹ and the kcat/Km worked out at 3640 M⁻¹ s⁻¹.

Regarding B5, the Km was 23.3 (1.4) mM, the kcat came out at 81.2 s⁻¹ and the catalytic efficiency (kcat/Km) came to 3480 M⁻¹ s⁻¹.

Consider B6, for which the Km is on record as 17.6 (2.1) mM, the kcat came out at 45.5 s⁻¹ and the kcat/Km came to 2580 M⁻¹ s⁻¹.

Broadly, the kcat is the maximal rate divided by the concentration of active sites. For orientation: kcat/Km means the turnover number divided by the Michaelis constant.
